This assay has as its target T1, Fc-fused CD215 fragment.
T1 construct: also called CD215 fragment in L-unit (fused with hIgG4Fc); CD215 fragment fused with Fc
Description: sandwich ELISA of the intact complex in mouse serum: one antibody captures the S-unit, the other detects the Fc portion. For orientation: In an ELISA, binding on a coated surface is turned into a signal by an enzyme label.

This is an account of results in EP4741426A1 (Leto Laboratories Co., Ltd, dated 2026).

T1 sequence (chain, as listed by the source limits assumed): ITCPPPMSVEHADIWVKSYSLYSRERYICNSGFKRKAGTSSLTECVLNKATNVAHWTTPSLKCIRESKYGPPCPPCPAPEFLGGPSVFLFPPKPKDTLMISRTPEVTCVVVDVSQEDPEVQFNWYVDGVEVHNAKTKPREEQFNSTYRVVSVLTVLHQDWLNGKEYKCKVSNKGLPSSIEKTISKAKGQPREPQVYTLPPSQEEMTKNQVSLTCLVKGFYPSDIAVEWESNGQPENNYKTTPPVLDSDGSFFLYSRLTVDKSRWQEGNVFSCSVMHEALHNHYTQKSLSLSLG

B1: S-unit molecule (PM619) (ligand)
chain: APTSSSTKKTQLQLEHLLLDLQMILNGIQSMHIDATLYTESDVHPSCKVTAMKCFLLELQVISLESGDASIHDTVENLIILANNSLSSNGNVTESGCKECEELEEKNIVEFLNRFITFAQSIISTLT
notes: also called IL-2/15 chimera; modified IL-2 molecule
For B1, the binding result is listed as “binds”.
